These results are taken from article doi:10.1101/2025.11.13.688182.

This test addresses RAD51 full-length [F86E, A89E], co-expressed with BRC repeats (human) (UniProt Q06609). Nature of the test: SEC-SAXS. A general note: In gel filtration, larger molecules generally elute earlier.
Chain of UniProt Q06609 (Q06609 whole entry F86E/A89E): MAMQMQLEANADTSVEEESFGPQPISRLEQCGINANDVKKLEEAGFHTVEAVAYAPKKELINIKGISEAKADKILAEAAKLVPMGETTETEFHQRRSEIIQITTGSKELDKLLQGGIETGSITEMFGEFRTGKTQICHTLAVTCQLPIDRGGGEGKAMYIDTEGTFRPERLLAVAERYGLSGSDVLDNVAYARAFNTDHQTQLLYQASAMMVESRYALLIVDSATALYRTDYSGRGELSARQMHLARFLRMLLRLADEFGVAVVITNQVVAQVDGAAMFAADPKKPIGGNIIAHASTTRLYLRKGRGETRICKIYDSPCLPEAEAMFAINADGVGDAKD

Regarding “BRCA2 truncation BRC1-2 (from UniProt P51587 1-3418) (domain or fragment)”, the stoichiometry, BRC repeats to RAD51 (RAD51 per BRC repeat) was 1.
In turn, “BRCA2 truncation BRC1-4 (from UniProt P51587 1-3418) (domain or fragment)” gave a stoichiometry, BRC repeats to RAD51 (RAD51 per BRC repeat) of 1.
“BRCA2 truncation BRC2-3 (from UniProt P51587 1-3418) (domain or fragment)” returned a stoichiometry, BRC repeats to RAD51 (RAD51 per BRC repeat) of 1.
As for “BRCA2 truncation BRC2-4 (from UniProt P51587 1-3418) (domain or fragment)”, the figure is 1; as for “BRCA2 truncation BRC3-4 (from UniProt P51587 1-3418) (domain or fragment)”, 1.
